Results: patent publication EP4435105

B1: 5E5 (antibody, V domains shown)
VH: QVQLVESGGGVVQPGRSLRLSCAASGFTFSNYVMHWVRQAPGKGLEWVAVIWYDGSNKYYADSVKGRFTISRDNSKNTLYLQMNSLRAEDTAVYYCTREVYSSGWYDYGMDVWGQGTTVTVSS
VL: DIQMTQSPSSLSASVGDRVTITCRASQGIRNDLGWYQQKPGKAPKRLIYAASSLQSGVPSRFSGSGSGTEFTLTISSLQPEDFATYYCLQHYSYPRTFGQGTKVEVK
B2: 176H4 (antibody, V domains shown)
VH: QVQLVESGGGVVQPGRSLRLSCAASGFTFSSYGMHWVRQAPGKGLEWVAIIWYDGSYKYYADSVKGRFTISRDNSKNTLYLQMSSLRAEDTAVYYCARDAHDFWSGYFAYWGQGALVTVSS
VL: DIVMTQTPLSLSVTPGQPASISCKSSQSLLHGDGKTYLYWYLQKPGQPPQLLIYEVSNRFSGVPDRFSGSGSGTDFTLKISRVEAEDVGIYYCMQSIQIPWTFGQGTRVEIK
B3: 4A2 (antibody, V domains shown)
VH: QVQLVQSGTEVKKPGASVKVSCKASGYTFTNYDINWVRQATGQGLEWMGWMHPNSGNTGYAQKFQGRVTLTRDTSISTAYMELSSLRSEDTAVYYCASSSGWYYFDYWGQGTLVTVSS
VL: DIVMTQSPDSLAVSLGERATINCKSSQSILHSSNNNNYLAWFQQKPGQPPKLLLYWASTRESGVPDRFSGSGSGTDFTLTISSLQPEDVAVYYCQQYYNTPVTFGPGTKVGIK
B4: 194C10 (antibody, V domains shown)
VH: QVQLQQWGAGLLKPSETLSLTCAVSGGSFRYYYWSWIRQPPGKGLEWFGEINHSGSTNYNPSLKSRVTISIDTSKNQFSLKLRSVTAADTAVYYCARDYGAFDIWGQGTMVTVSS
VL: EIVLTQSPGTLSLSPGERATLSCRASPSVNSGYLAWYQQKPGQTPRLLIFGASSRATGIPDRFSASGSGADFTLTISRLEPEDFAVYFCQQYESSPWTFGQGTKVEIK
B5: 22G5 (antibody, V domains shown)
VH: EVQLLESGGGLVQPGGSLRLSCAASGFTFSSYAMNWVRQAPGMGLEWVSVISRSGGYTYYADSVKGRFTISRDNSKNTLYLQMNSLRAEDTAVYYCASRLAVAGSEAFDIWGQGTLVTVSS
VL: DIQMTQSPSSLSASVGDRVTITCRASQNISSYLNWYQQKQGKAPKLLIYAASSLQNGVPSRFSGRGSGTDFTLTISSLQPEDFATYYCQQSYRTPLFTFGPGTKVDFK

Legend:
[1] = target: T1, human ASGR-1 (on CHO-S cells) (human, UniProt P07306); test: competition, FACS, GalNAc-PAA
T1 chain: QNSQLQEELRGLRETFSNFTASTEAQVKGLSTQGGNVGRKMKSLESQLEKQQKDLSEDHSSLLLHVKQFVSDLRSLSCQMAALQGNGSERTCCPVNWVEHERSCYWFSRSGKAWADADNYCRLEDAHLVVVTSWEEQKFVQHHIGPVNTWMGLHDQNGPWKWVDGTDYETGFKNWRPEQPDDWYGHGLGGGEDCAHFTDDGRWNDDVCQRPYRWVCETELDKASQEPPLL

[2] = target: T1, human ASGR-1 (on CHO-S cells); test: competition, FACS, asialofetuin

IC50 [1]	IC50 [2]	Binder
> 200 nM	16 nM	B1
73 nM	59 nM	B2
54 nM	11 nM	B3
87 nM	30 nM	B4
11 nM	3.4 nM	B5
